# In patent US6537804B1, “BCR-ABL directed compositions and uses for inhibiting Philadelphia chromesome stimulated cell growth” (Board of Regents, The University of Texas Systems, priority 1995, dated 2003):
# Non-standard residues stand in square brackets, D forms with d. No end group written: not given here. pY = N[C@@H](Cc1ccc(OP(=O)(O)O)cc1)C(=O)O
# What was measured:
# [1] = target: T1, amino terminal SH2 domain of Ras Gap (Homo sapiens, UniProt P20936); test: Binding of phosphotyrosine tryptic peptides of Bcr-Abl to GST-Gap SH2; details: phosphotyrosine tryptic peptides of p210 Bcr-Abl; no binding to GST
# T1 construct: the amino terminal SH2 domain of Ras Gap was expressed as a fusion protein containing the glutathione S transferase protein (GST); made in house
# T1 sequence (P20936 181-272 limits assumed): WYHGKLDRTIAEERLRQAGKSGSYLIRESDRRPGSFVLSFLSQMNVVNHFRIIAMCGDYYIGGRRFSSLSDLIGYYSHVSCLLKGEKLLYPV
# Text: The inventors have conducted studies in which the amino terminal SH2 domain of Ras Gap was expressed as a fusion protein containing the glutathione S transferase protein (GST). These studies involve mixing GST-Gap SH2 with phosphotyrosine tryptic peptides of Bcr-Abl.
# c-Abl SH2 = target: T2, c-Abl SH2 (Mus musculus, UniProt P00520); test: Binding of phosphotyrosine tryptic peptides of Bcr-Abl to GST-Abl SH2; details: phosphotyrosine tryptic peptides of p210 Bcr-Abl; no binding to GST
# T2 construct: The inventors performed similar studies with the SH2 domain of Abl; made in house
# T2 sequence (P00520 127-217 limits assumed): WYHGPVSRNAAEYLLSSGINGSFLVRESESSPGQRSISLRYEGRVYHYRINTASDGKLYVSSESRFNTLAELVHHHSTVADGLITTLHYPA
# Text: FIG. 10A and FIG. 10B show an absorbed tryptic map of p210. GST-Abl SH2 binds phosphotyrosine tryptic peptide 3, which contains tyrosine 283. p210 Bcr-Abl labeled in the in vitro kinase assay from K562 cells was purified on SDS gels, digested with trypsin and the digest was split in two parts. One was absorbed with GST (FIG. 10A) and the other with GST-Abl SH2 (FIG. 10B). […] The dashed circles identify peptides lacking in the GST-Abl SH2 absorbed fractions.
# The inventors performed similar studies with the SH2 domain of Abl. These were performed with a mouse c-Abl SH2 sequence, which differs by only two amino acids from the human sequence within the SH2 domain.
# SH2 domain of Grb2 = SH2 domain of Grb2 (Homo sapiens, UniProt P62993); test: Binding of Bcr peptide to Grb2; details: tyrosine 177 phosphorylated peptide
# Chain of SH2 domain of Grb2 (P62993 whole entry, the tested form may be a part): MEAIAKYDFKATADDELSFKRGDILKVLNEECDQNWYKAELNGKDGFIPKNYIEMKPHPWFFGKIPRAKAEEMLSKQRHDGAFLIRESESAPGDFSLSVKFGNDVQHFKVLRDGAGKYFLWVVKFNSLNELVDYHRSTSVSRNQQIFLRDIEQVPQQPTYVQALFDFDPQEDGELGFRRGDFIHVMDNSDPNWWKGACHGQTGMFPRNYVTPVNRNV
# simian Grb2 protein = test: Co-immunoprecipitation of Grb2 with p160 BCR from COS1 cells, anti-Grb2 Western blotting; format: binding; details: COS1 cells coexpressing p145 c-ABL(1b)
# Experimental: Anti-Grb2 Western blotting was performed on anti-BCR (1256-1271) antibody immunoprecipitates of lysates from COS1 cells cotransfected p145 c-ABL with either wild type p160 BCR (lanes 1 and 2) or p160 BCR (F177) (lanes 3 and 4) mutant. Lanes 2 and 4 are immunoprecipitation with pre-blocked anti-BCR (1256-1271) antibody. COS1 cells express an endogenous simian Grb2 protein detected by Western blotting (FIG. 18, lane 1). P160 BCR and p145 c-ABL(1b) were separately or simultaneously expressed in COS1 cells. Two days after transfection, cells were harvested. The cell lysates were clarified by ultracentrifugation and the supernatants were incubated with either anti-BCR c-terminal (1256-1271) antibody (FIG. 18, lanes 2, 4 and 6) or peptide preblocked antibody (FIG. 18, lanes 3, 5 and 7). The immunoprecipitated proteins were then fractionated by a 10% polyacrylamide SDS PAGE and then transferred to a p-immoblin membrane. The membrane was then blotted by an anti-Grb2 antibody (FIG. 18). In this study, p145 c-ABL was coexpressed with either wild type p160 BCR or the mutant p160 BCR(F177) in COS1 cells. Cell lysates were subjected to immunoprecipitation by anti-BCR C-terminal (1256-1271) antibody and the immunoprecipitates were analyzed by Western blotting with an anti-Grb2 antibody.
Molecule,Binding to GST-Ras Gap SH2 fusion protein [1],Binding to GST-Abl SH2 (c-Abl SH2),Co-immunoprecipitation of simian Grb2 protein by anti-BCR C-terminal (1256-1271) antibody (simian Grb2 protein),other results
"FLKDNLIDANGGSRPPWPPLEYQPYQSIYVGGMMEGEGK (also: phosphotyrosine, position not given here) [#3, phosphotyrosine tryptic peptide 3 of p210 Bcr-Abl]",specifically bound,bind,,
GHGQPGADAEKPFpY^177VNVE (GHGQPGADAEKPF[pY]VNVE) [Bcr Peptide 164-181],,,,Binding to the SH2 binding site on Grb2 (SH2 domain of Grb2): binds; Binding to the SH2 binding site on Grb2 (SH2 domain of Grb2; listed as SEQ ID NO:8): strongly binds
"NSLETLLYK (NSLETLL[pY]K) [#8, phosphotyrosine tryptic peptide 8 of p210 Bcr-Abl, outside of the first exon]",specifically bound,bind,,
wild type p160 PCR: wild type full length human p160 BCR tyrosine phosphorylated by p145 c-ABL(1b) (protein) MVDPVGFAEAWKAQFPDSEPPRMELRSVGDIEQELERCKASIRRLEQEVNQERFRMIYLQTLLAKEKKSYDRQRWGFRRAAQAPDGASEPRASASRPQPAPADGADPPPAEEPEARPDGEGSPGKARPGTARRPGAAASGERDDRGPPASVAALRSNFERIRKGHGQPGADAEKPFYVNVEFHHERGLVKVNDKEVSDRISSLGSQAMQMERKKSQHGAGSSVGDASRPPYRGRSSESSCGVDGDYEDAELNPRFLKDNLIDANGGSRPPWPPLEYQPYQSIYVGGMMEGEGKGPLLRSQSTSEQEKRLTWPRRSYSPRSFEDCGGGYTPDCSSNENLTSSEEDFSSGQSSRVSPSPTTYRMFRDKSRSPSQNSQQSFDSSSPPTPQCHKRHRHCPVVVSEATIVGVRKTGQIWPNDGEGAFHGDADGSFGTPPGYGCAADRAEEQRRHQDGLPYIDDSPSSSPHLSSKGRGSRDALVSGALESTKASELDLEKGLEMRKWVLSGILASEETYLSHLEALLLPMKPLKAAATTSQPVLTSQQIETIFFKVPELYEIHKEFYDGLFPRVQQWSHQQRVGDLFQKLASQLGVYRAFVDNYGVAMEMAEKCCQANAQFAEISENLRARSNKDAKDPTTKNSLETLLYKPVDRVTRSTLVLHDLLKHTPASHPDHPLLQDALRISQNFLSSINEEITPRRQSMTVKKGEHRQLLKDSFMVELVEGARKLRHVFLFTDLLLCTKLKKQSGGKTQQYDCKWYIPLTDLSFQMVDELEAVPNIPLVPDEELDALKIKISQIKNDIQREKRANKGSKATERLKKKLSEQESLLLLMSPSMAFRVHSRNGKSYTFLISSDYERAEWRENIREQQKKCFRSFSLTSVELQMLTNSCVKLQTVHSIPLTINKEDDESPGLYGFLNVIVHSATGFKQSSNLYCTLEVDSFGYFVNKAKTRVYRDTAEPNWNEEFEIELEGSQTLRILCYEKCYNKTKIPKEDGESTDRLMGKGQVQLDPQALQDRDWQRTVIAMNGIEVKLSVKFNSREFSLKRMPSRKQTGVFGVKIAVVTKRERSKVPYIVRQCVEEIERRGMEEVGIYRVSGVATDIQALKAAFDVNNKDVSVMMSEMDVNAIAGTLKLYFRELPEPLFTDEFYPNFAEGIALSDPVAKESCMLNLLLSLPEANLLTFLFLLDHLKRVAEKEAVNKMSLHNLATVFGPTLLRPSEKESKLPANPSQPITMTDSWSLEVMSQVQVLLYFLQLEAIPAPDSKRQSILFSTEV,,,bind specifically,
p160 BCR lacking tyrosine 177: tyrosine 177 to phenylalanine mutant of p160 BCR (protein) MVDPVGFAEAWKAQFPDSEPPRMELRSVGDIEQELERCKASIRRLEQEVNQERFRMIYLQTLLAKEKKSYDRQRWGFRRAAQAPDGASEPRASASRPQPAPADGADPPPAEEPEARPDGEGSPGKARPGTARRPGAAASGERDDRGPPASVAALRSNFERIRKGHGQPGADAEKPFFVNVEFHHERGLVKVNDKEVSDRISSLGSQAMQMERKKSQHGAGSSVGDASRPPYRGRSSESSCGVDGDYEDAELNPRFLKDNLIDANGGSRPPWPPLEYQPYQSIYVGGMMEGEGKGPLLRSQSTSEQEKRLTWPRRSYSPRSFEDCGGGYTPDCSSNENLTSSEEDFSSGQSSRVSPSPTTYRMFRDKSRSPSQNSQQSFDSSSPPTPQCHKRHRHCPVVVSEATIVGVRKTGQIWPNDGEGAFHGDADGSFGTPPGYGCAADRAEEQRRHQDGLPYIDDSPSSSPHLSSKGRGSRDALVSGALESTKASELDLEKGLEMRKWVLSGILASEETYLSHLEALLLPMKPLKAAATTSQPVLTSQQIETIFFKVPELYEIHKEFYDGLFPRVQQWSHQQRVGDLFQKLASQLGVYRAFVDNYGVAMEMAEKCCQANAQFAEISENLRARSNKDAKDPTTKNSLETLLYKPVDRVTRSTLVLHDLLKHTPASHPDHPLLQDALRISQNFLSSINEEITPRRQSMTVKKGEHRQLLKDSFMVELVEGARKLRHVFLFTDLLLCTKLKKQSGGKTQQYDCKWYIPLTDLSFQMVDELEAVPNIPLVPDEELDALKIKISQIKNDIQREKRANKGSKATERLKKKLSEQESLLLLMSPSMAFRVHSRNGKSYTFLISSDYERAEWRENIREQQKKCFRSFSLTSVELQMLTNSCVKLQTVHSIPLTINKEDDESPGLYGFLNVIVHSATGFKQSSNLYCTLEVDSFGYFVNKAKTRVYRDTAEPNWNEEFEIELEGSQTLRILCYEKCYNKTKIPKEDGESTDRLMGKGQVQLDPQALQDRDWQRTVIAMNGIEVKLSVKFNSREFSLKRMPSRKQTGVFGVKIAVVTKRERSKVPYIVRQCVEEIERRGMEEVGIYRVSGVATDIQALKAAFDVNNKDVSVMMSEMDVNAIAGTLKLYFRELPEPLFTDEFYPNFAEGIALSDPVAKESCMLNLLLSLPEANLLTFLFLLDHLKRVAEKEAVNKMSLHNLATVFGPTLLRPSEKESKLPANPSQPITMTDSWSLEVMSQVQVLLYFLQLEAIPAPDSKRQSILFSTEV,,,much reduced level,
